PMC7199903

Molecular target: recombinant soluble SARS-CoV-2 spike (S) glycoprotein, prefusion-stabilised trimer (2P, GSAS, C-terminal trimerization motif) (SARS-CoV-2)
Experiment: negative-stain EM

Q: “recombinant soluble SARS-CoV-2 spike (S) glycoprotein, prefusion-stabilised trimer (2P, GSAS, C-terminal trimerization motif) (domain or fragment)” was tested. Which stoichiometry N did it give?
A: 3
